Where two headings read alike, the source gives them in different places.
How the values were obtained:
[1] = molecular target: rat hypothalamic Y5 receptor (rat) (UniProt Q63634); experiment: 125I-PYY displacement, COS-7 membranes
[2] = molecular target: rat hypothalamic membranes (NPY/PYY binding sites); experiment: 125I-PYY displacement, rat hypothalamic membranes
[3] = molecular target: rat hypothalamic membranes (NPY/PYY binding sites); experiment: 125I-PYY3-36 displacement, rat hypothalamic membranes
[4] = molecular target: rat Y4 receptor (rat) (UniProt Q63447); experiment: 125I-PYY displacement, COS-7 membranes
Sequence of rat Y4 receptor (rat) (Q63447 whole entry): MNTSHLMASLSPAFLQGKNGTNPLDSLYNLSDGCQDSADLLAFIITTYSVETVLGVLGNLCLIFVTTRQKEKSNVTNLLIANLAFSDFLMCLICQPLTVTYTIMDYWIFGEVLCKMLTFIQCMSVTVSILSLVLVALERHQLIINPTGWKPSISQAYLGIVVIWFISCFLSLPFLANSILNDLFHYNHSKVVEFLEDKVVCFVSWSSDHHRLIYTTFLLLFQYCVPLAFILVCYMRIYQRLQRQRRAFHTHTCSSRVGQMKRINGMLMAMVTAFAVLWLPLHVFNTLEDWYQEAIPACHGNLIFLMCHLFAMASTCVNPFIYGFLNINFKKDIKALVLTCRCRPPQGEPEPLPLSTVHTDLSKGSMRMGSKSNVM

[5] = molecular target: rat hypothalamic membranes (NPY/PYY binding sites); experiment: 125I-PYY displacement, rat hypothalamic membranes, low-affinity part
[6] = molecular target: rat hypothalamic membranes (NPY/PYY binding sites); experiment: 125I-PYY displacement, rat hypothalamic membranes, high-affinity part
[7] = molecular target: rat hypothalamic membranes (NPY/PYY binding sites); experiment: 125I-PYY3-36 displacement, rat hypothalamic membranes, low-affinity part
[8] = molecular target: rat hypothalamic membranes (NPY/PYY binding sites); experiment: 125I-PYY3-36 displacement, rat hypothalamic membranes, high-affinity part
[9] = molecular target: rat hypothalamic Y5 receptor (rat) (UniProt Q63634); experiment: cell-based or functional assay
[10] = molecular target: canine Y5 receptor (canine) (UniProt O62729); experiment: 125I-PYY displacement, COS-7 membranes
Sequence of canine Y5 receptor (canine) (O62729 other isoform, or with tags, fused parts or gaps): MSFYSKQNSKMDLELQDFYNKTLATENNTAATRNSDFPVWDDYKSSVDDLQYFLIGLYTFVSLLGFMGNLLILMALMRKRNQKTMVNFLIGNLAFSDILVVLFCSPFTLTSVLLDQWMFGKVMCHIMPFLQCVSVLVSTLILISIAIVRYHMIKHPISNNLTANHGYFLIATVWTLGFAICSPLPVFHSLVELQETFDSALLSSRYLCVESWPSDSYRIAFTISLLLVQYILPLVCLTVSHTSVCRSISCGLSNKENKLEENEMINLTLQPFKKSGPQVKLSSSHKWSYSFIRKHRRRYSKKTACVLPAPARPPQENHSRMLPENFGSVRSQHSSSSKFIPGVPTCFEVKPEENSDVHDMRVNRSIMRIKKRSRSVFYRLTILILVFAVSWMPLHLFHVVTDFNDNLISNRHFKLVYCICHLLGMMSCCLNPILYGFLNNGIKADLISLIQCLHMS

[11] = molecular target: human Y1 receptor (human) (UniProt P25929); experiment: 125I-PYY displacement, COS-7 membranes
Sequence of human Y1 receptor (human) (P25929 whole entry): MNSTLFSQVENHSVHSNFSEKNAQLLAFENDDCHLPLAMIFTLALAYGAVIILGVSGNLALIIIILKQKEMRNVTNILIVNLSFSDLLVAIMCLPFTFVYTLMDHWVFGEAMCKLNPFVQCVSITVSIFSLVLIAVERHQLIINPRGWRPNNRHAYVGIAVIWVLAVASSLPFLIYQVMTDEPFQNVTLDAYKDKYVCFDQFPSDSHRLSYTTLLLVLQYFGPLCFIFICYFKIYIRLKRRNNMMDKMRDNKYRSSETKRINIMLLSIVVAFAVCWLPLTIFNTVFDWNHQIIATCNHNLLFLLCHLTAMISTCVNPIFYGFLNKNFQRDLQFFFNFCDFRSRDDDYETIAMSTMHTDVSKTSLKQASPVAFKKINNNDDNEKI

[12] = molecular target: human Y2 receptor (human) (UniProt P49146); experiment: 125I-PYY displacement, COS-7 membranes
Sequence of human Y2 receptor (human) (P49146 whole entry): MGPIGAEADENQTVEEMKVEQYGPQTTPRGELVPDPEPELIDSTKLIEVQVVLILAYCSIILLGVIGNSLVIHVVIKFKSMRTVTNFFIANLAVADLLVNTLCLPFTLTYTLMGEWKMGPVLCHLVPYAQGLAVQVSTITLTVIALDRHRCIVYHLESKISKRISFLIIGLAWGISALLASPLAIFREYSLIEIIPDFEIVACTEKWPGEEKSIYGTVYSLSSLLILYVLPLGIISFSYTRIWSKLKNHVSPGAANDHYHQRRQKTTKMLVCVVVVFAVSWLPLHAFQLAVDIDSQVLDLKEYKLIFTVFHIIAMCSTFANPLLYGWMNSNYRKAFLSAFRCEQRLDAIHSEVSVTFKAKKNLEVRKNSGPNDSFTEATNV

[13] = molecular target: human Y4 receptor (human) (UniProt P50391); experiment: 125I-PYY displacement, COS-7 membranes
Sequence of human Y4 receptor (human) (P50391 whole entry): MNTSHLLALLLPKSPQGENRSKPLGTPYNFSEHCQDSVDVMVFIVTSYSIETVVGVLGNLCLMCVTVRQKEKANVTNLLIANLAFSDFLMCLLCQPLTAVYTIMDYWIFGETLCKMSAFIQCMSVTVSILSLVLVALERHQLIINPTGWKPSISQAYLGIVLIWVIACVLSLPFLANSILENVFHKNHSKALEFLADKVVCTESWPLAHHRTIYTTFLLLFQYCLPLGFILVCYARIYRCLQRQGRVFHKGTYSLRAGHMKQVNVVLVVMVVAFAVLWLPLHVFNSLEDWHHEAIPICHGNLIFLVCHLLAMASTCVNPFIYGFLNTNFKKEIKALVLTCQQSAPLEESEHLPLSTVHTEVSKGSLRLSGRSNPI

[14] = molecular target: rat hypothalamic Y5 receptor (rat) (UniProt Q63634); experiment: 125I-PYY displacement, COS-7 membranes; remark: listed apart in the source
[15] = molecular target: rat Y1 receptor (rat) (UniProt P21555); experiment: 125I-PYY displacement, COS-7 membranes
Sequence of rat Y1 receptor (rat) (P21555 whole entry): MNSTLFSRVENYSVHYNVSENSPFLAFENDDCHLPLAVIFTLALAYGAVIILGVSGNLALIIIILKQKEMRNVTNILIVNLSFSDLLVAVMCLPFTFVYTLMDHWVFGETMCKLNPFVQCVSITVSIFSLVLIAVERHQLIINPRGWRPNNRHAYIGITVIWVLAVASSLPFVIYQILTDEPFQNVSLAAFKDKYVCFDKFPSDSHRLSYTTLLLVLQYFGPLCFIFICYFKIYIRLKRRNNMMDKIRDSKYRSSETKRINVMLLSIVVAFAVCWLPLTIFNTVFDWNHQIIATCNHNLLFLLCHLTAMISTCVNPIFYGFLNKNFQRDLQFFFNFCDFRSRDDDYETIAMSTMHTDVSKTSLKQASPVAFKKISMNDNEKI

[16] = molecular target: rat Y2 receptor (rat) (UniProt Q9ERC0); experiment: 125I-PYY displacement, COS-7 membranes
Sequence of rat Y2 receptor (rat) (Q9ERC0 entry or part of it): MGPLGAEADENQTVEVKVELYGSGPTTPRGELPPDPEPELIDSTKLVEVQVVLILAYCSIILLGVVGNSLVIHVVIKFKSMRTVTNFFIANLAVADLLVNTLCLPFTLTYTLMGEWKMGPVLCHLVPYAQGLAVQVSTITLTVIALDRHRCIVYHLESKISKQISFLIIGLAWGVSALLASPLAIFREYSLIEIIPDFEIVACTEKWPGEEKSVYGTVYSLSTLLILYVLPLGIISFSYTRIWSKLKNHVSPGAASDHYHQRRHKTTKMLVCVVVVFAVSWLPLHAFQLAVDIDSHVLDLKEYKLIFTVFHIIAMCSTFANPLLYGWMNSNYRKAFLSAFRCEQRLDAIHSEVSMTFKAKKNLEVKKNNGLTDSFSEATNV

[17] = molecular target: human Y5 receptor (human) (UniProt Q15761); experiment: 125I-PYY displacement, COS-7 membranes
Sequence of human Y5 receptor (human) (Q15761 other isoform, or with tags, fused parts or gaps): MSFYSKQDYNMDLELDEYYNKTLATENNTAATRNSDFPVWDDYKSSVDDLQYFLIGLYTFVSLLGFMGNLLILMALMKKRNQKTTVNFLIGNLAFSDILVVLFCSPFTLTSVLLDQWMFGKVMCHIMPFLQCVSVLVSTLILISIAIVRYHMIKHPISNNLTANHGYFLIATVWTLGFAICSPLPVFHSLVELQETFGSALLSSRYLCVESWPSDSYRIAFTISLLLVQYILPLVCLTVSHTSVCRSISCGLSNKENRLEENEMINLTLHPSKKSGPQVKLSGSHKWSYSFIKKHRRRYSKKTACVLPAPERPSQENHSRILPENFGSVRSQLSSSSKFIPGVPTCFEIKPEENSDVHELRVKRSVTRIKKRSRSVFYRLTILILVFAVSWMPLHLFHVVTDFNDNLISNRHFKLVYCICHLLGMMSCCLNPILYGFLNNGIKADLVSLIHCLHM

[18] = molecular target: rat hypothalamic Y5 receptor (rat) (UniProt Q63634); experiment: 125I-PYY displacement, COS-7 membranes; remark: listed apart in the source
[19] = molecular target: human Y5 receptor (human) (UniProt Q15761); experiment: 125I-PYY displacement, LM(tk-) membranes
[20] = molecular target: human Y5 receptor (human) (UniProt Q15761); experiment: 125I-PYY3-36 displacement, LM(tk-) membranes
[21] = molecular target: human Y5 receptor (human) (UniProt Q15761); experiment: cell-based or functional assay
[22] = molecular target: human Y5 receptor (human) (UniProt Q15761); experiment: 125I-PYY displacement, COS-7 membranes; remark: listed apart in the source

Sequence of salmon PP (peptide) (P69092 whole entry): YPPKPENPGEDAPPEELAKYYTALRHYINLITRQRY
Sequence of rat hypothalamic Y5 receptor (rat) (Q63634 other isoform, or with tags, fused parts or gaps): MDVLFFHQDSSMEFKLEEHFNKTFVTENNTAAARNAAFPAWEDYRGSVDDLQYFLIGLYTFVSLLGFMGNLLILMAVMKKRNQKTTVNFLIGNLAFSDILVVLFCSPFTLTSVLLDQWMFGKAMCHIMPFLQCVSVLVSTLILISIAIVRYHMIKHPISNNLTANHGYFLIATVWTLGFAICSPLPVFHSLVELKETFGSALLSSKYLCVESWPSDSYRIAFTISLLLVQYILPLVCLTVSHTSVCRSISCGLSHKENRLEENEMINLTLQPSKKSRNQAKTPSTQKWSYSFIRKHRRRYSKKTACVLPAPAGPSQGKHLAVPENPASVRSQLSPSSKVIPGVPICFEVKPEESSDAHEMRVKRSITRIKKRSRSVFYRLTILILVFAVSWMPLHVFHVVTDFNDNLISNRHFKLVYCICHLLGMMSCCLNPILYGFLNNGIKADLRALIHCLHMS

W(nor-L)RF-amide (peptide)
Ki [1]: 8700 nM

human NPY2-36 (from UniProt P01303 30-64) (peptide)
% NPY-produced displacement [2]: 100%
IC50 [2]: 2.3 nM
% NPY-produced displacement [3]: 100%
IC50 [3]: 1.2 nM

human NPY2-36, P01303 30-64 (peptide; other documents disagree on this pair)
Ki [4]: 5 nM

human PP (from UniProt P01298 30-65) (peptide)
% NPY-produced displacement [2]: 20%

human PYY (from UniProt P10082 29-64) (peptide)
% NPY-produced displacement [2]: 100%
% NPY-produced displacement [3]: 100%
IC50 [3]: 0.29 nM

human [Leu^31, Pro^34]NPY (from UniProt P01303 29-64) (peptide)
% NPY-produced displacement [5]: 56%
IC50 [5]: 340 nM
% NPY-produced displacement [6]: 44%
IC50 [6]: 0.21 nM
% NPY-produced displacement [7]: 73%
IC50 [7]: 250 nM
% NPY-produced displacement [8]: 27%
IC50 [8]: 0.38 nM

porcine C2-NPY (peptide)
EC50, inhibition of forskolin-stimulated cAMP accumulation, 293 cells [9]: 240 nM
Ki [10]: 300 nM
Ki [11]: 79 nM
Ki [12]: 3.5 nM
Ki [13]: 120 nM
Ki [14]: 470 nM
Ki [15]: 140 nM
Ki [16]: 2.6 nM
Ki [4]: 22 nM
Ki [17]: 370 nM
Ki [18]: 260 nM
Ki [19]: 260 nM
Ki [20]: 220 nM

porcine NPY3-36, P01304 12-45 (peptide; other documents disagree on this pair)
Ki [4]: 36 nM

rat/human NPY (from UniProt P01303 29-64) (peptide)
% NPY-produced displacement [2]: 100%
IC50 [2]: 0.82 nM
% NPY-produced displacement [3]: 100%

rat/human NPY, P01303 29-64 (peptide; C-terminal amide; other documents disagree on this pair)
Ki [4]: 1.7 nM

salmon PP (peptide)
% inhibition relative to human NPY, cAMP, LM(tk-) cells [21]: 96%
EC50, inhibition of forskolin-stimulated cAMP accumulation, LM(tk-) cells [21]: 4.5 nM
EC50, inhibition of forskolin-stimulated cAMP accumulation, 293 cells [9]: 0.92 nM
Ki [11]: 0.11 nM
Ki [12]: 0.17 nM
Ki [13]: 3.2 nM
Ki [22]: 0.46 nM
Ki [14]: 0.31 nM
Ki [15]: 0.3 nM
Ki [16]: 0.16 nM
Ki [4]: 3 nM
Ki [1]: 0.33 nM
Ki [17]: 0.27 nM
Ki [20]: 0.63 nM

Reference: US6713265
